Substitutions are numbered along the chain they refer to.
T1: BMPRII receptor-Fc fusion (UniProt Q13873 27-151, limits assumed)
T1 construct: BMP receptor-Fc fusion used at 5 ug/mL
T1 sequence (looked up): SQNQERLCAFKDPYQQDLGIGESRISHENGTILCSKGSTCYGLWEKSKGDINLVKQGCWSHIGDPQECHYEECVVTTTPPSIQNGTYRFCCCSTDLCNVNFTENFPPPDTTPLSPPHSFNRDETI

T2: BMPRIb receptor-Fc fusion (UniProt O00238 14-126)
T2 construct: BMP receptor-Fc fusion used at 5 ug/mL; also called ALK-6
T2 sequence (looked up): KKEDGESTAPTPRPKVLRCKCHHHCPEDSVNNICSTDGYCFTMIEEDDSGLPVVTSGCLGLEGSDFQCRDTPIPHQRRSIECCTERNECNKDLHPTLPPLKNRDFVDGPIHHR

B1: BMP-7 variant E60H (ligand)
chain: STGGKQRSQNRSKTPKNQEALRMASVAENSSSDQRQACKKHELYVSFRDLGWQDWIIAPHGYAAYYCEGECAFPLNSYMNATNHAIVQTLVHFINPETVPKPCCAPTQLNAISVLYFDDSSNVILKKYRNMVVRACGCH
notes: In conditioned media; numbering on mature BMP-7
B2: BMP-7 variant F93T (ligand)
chain: B1 chain with H60E, F93T
notes: as for B1
B3: BMP-7 variant I86Q (ligand)
chain: B1 chain with H60E, I86Q
notes: as for B1
B4: BMP-7 variant I86E (ligand)
chain: B1 chain with H60E, I86E
notes: as for B1
B5: BMP-7 variant F117R (ligand)
chain: B1 chain with H60E, F117R
notes: as for B1
B6: BMP-7 variant I57L (ligand)
chain: B1 chain with I57L, H60E
notes: as for B1
B7: BMP-7 variant F117Y (ligand)
chain: B1 chain with H60E, F117Y
notes: as for B1
B8: BMP-7 variant I86K (ligand)
chain: B1 chain with H60E, I86K
notes: as for B1
B9: BMP-7 variant F73K (ligand)
chain: B1 chain with H60E, F73K
notes: as for B1
B10: BMP-7 variant K39N (ligand)
chain: B1 chain with K39N, H60E
notes: as for B1
B11: BMP-7 variant I86D (ligand)
chain: B1 chain with H60E, I86D
notes: as for B1
B12: BMP-7 variant F73S (ligand)
chain: B1 chain with H60E, F73S
notes: as for B1
B13: BMP-7 variant F73D (ligand)
chain: B1 chain with H60E, F73D
notes: as for B1
B14: BMP-7 variant F93G (ligand)
chain: B1 chain with H60E, F93G
notes: as for B1
B15: BMP-7 variant F93D (ligand)
chain: B1 chain with H60E, F93D
notes: as for B1
B16: BMP-7 variant F73E (ligand)
chain: B1 chain with H60E, F73E
notes: as for B1
B17: BMP-7 variant F117K (ligand)
chain: B1 chain with H60E, F117K
notes: as for B1
B18: BMP-7 variant I94Q (ligand)
chain: B1 chain with H60E, I94Q
notes: as for B1
B19: BMP-7 variant F73N (ligand)
chain: B1 chain with H60E, F73N
notes: as for B1
B20: BMP-7 variant F93H (ligand)
chain: B1 chain with H60E, F93H
notes: as for B1
B21: BMP-7 variant K39A (ligand)
chain: B1 chain with K39A, H60E
notes: as for B1
B22: BMP-7 variant F93E (ligand)
chain: B1 chain with H60E, F93E
notes: as for B1
B23: BMP-7 variant F73Q (ligand)
chain: B1 chain with H60E, F73Q
notes: as for B1
B24: BMP-7 variant E60P (ligand)
chain: B1 chain with H60P
notes: as for B1
B25: BMP-7 variant L115A (ligand)
chain: B1 chain with H60E, L115A
notes: as for B1
B26: BMP-7 variant W52P (ligand)
chain: B1 chain with W52P, H60E
notes: as for B1
B27: BMP-7 variant W55A (ligand)
chain: B1 chain with W55A, H60E
notes: as for B1
B28: BMP-7 variant L21E (ligand)
chain: B1 chain with L21E, H60E
notes: as for B1
B29: BMP-7 variant S77H (ligand)
chain: B1 chain with H60E, S77H
notes: as for B1
B30: BMP-7 variant F93A (ligand)
chain: B1 chain with H60E, F93A
notes: as for B1
B31: BMP-7 variant R48E (ligand)
chain: B1 chain with R48E, H60E
notes: as for B1
B32: BMP-7 variant F117S (ligand)
chain: B1 chain with H60E, F117S
notes: as for B1
B33: BMP-7 variant L90R (ligand)
chain: B1 chain with H60E, L90R
notes: as for B1

Target: T1, BMPRII receptor-Fc fusion
Test: ELISA-like plate assay, captured BMP-7 from conditioned media, receptor-Fc detection

| BMPRII binding (relative to wild type = 1.0) | Binder |
| --- | --- |
| 1.25 relative to wild type | B1 |
| 0.81 relative to wild type | B2 |
| 1.07 relative to wild type | B3 |
| 1.13 relative to wild type | B4 |
| 0.72 relative to wild type | B5 |
| 0.4 relative to wild type | B6 |
| 0.96 relative to wild type | B7 |
| 1.02 relative to wild type | B8 |
| 0.38 relative to wild type | B9 |
| 0.99 relative to wild type | B10 |
| 1.31 relative to wild type | B11 |
| 2.84 relative to wild type | B12 |
| 3.05 relative to wild type | B13 |
| 0.35 relative to wild type | B14 |
| 0.62 relative to wild type | B15 |
| 1.77 relative to wild type | B16 |
| 0.2 relative to wild type | B17 |
| 1.32 relative to wild type | B18 |
| 0.85 relative to wild type | B19 |
| 1.2 relative to wild type | B20 |
| 1.51 relative to wild type | B21 |
| 0.62 relative to wild type | B22 |
| 2.85 relative to wild type | B23 |
| 1.01 relative to wild type | B24 |

Target: T2, BMPRIb receptor-Fc fusion
Test: as above

| BMPRIb binding (relative to wild type = 1.0) | Binder |
| --- | --- |
| 0.42 relative to wild type | B1 |
| 0.88 relative to wild type | B2 |
| 0.82 relative to wild type | B3 |
| 0.17 relative to wild type | B25 |
| 0.69 relative to wild type | B4 |
| 0.71 relative to wild type | B5 |
| 0.14 relative to wild type | B26 |
| 0.23 relative to wild type | B27 |
| 0.16 relative to wild type | B28 |
| 1.17 relative to wild type | B6 |
| 0.73 relative to wild type | B7 |
| 0.69 relative to wild type | B8 |
| 1.14 relative to wild type | B9 |
| 1.63 relative to wild type | B10 |
| 1.18 relative to wild type | B11 |
| 0.25 relative to wild type | B12 |
| 0.3 relative to wild type | B29 |
| 0.64 relative to wild type | B13 |
| 0.53 relative to wild type | B14 |
| 0.91 relative to wild type | B15 |
| 0.24 relative to wild type | B30 |
| 1.23 relative to wild type | B16 |
| 0.62 relative to wild type | B17 |
| 0.74 relative to wild type | B18 |
| 0.95 relative to wild type | B19 |
| 1.04 relative to wild type | B20 |
| 2.86 relative to wild type | B21 |
| 0.99 relative to wild type | B22 |
| 1.71 relative to wild type | B23 |
| 0.53 relative to wild type | B24 |

Target: T3, BMPRIa receptor-Fc fusion (UniProt P36894 24-152, limits assumed)
T3 construct: also called ALK-3
T3 sequence (P36894 24-152 limits assumed): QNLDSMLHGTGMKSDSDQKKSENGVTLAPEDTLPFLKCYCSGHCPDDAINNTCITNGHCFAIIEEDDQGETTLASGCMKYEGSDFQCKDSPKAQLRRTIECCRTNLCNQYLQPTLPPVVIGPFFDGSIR
Test: as above

| BMPRIa binding (relative to wild type = 1.0) | Binder |
| --- | --- |
| 0.34 relative to wild type | B1 |
| 0.77 relative to wild type | B2 |
| 0.66 relative to wild type | B3 |
| 0.66 relative to wild type | B4 |
| 0.47 relative to wild type | B5 |
| 0.1 relative to wild type | B27 |
| 0.12 relative to wild type | B28 |
| 0.92 relative to wild type | B6 |
| 1.07 relative to wild type | B7 |
| 0.81 relative to wild type | B8 |
| 0.69 relative to wild type | B9 |
| 1.98 relative to wild type | B10 |
| 1.03 relative to wild type | B11 |
| 0.9 relative to wild type | B12 |
| 0.29 relative to wild type | B29 |
| 0.33 relative to wild type | B13 |
| 0.6 relative to wild type | B14 |
| 0.45 relative to wild type | B31 |
| 0.96 relative to wild type | B15 |
| 0.15 relative to wild type | B32 |
| 0.1 relative to wild type | B30 |
| 0.55 relative to wild type | B16 |
| 0.43 relative to wild type | B17 |
| 0.74 relative to wild type | B18 |
| 0.51 relative to wild type | B19 |
| 1.03 relative to wild type | B20 |
| 3.48 relative to wild type | B21 |
| 0.83 relative to wild type | B22 |
| 1.05 relative to wild type | B23 |
| 0.47 relative to wild type | B24 |

Target: T4, ActRIIa receptor-Fc fusion (UniProt P27037 20-134, limits assumed)
T4 construct: BMP receptor-Fc fusion used at 5 ug/mL
T4 sequence (P27037 20-134 limits assumed): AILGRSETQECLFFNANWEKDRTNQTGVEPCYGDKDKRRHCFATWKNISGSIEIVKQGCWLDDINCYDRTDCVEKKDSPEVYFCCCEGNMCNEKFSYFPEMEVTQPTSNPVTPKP
Test: as above

| ActRIIa binding (relative to wild type = 1.0) | Binder |
| --- | --- |
| 0.86 relative to wild type | B1 |
| 0.79 relative to wild type | B2 |
| 0.96 relative to wild type | B3 |
| 0.47 relative to wild type | B33 |
| 1 relative to wild type | B4 |
| 0.35 relative to wild type | B5 |
| 0.25 relative to wild type | B28 |
| 0.9 relative to wild type | B6 |
| 1.03 relative to wild type | B7 |
| 0.97 relative to wild type | B8 |
| 0.61 relative to wild type | B9 |
| 1.08 relative to wild type | B10 |
| 1.09 relative to wild type | B11 |
| 2.54 relative to wild type | B12 |
| 0.42 relative to wild type | B29 |
| 2.5 relative to wild type | B13 |
| 0.63 relative to wild type | B14 |
| 0.34 relative to wild type | B31 |
| 0.8 relative to wild type | B15 |
| 0.11 relative to wild type | B32 |
| 0.11 relative to wild type | B30 |
| 1.87 relative to wild type | B16 |
| 0.34 relative to wild type | B17 |
| 1.1 relative to wild type | B18 |
| 0.89 relative to wild type | B19 |
| 0.98 relative to wild type | B20 |
| 1.06 relative to wild type | B21 |
| 0.79 relative to wild type | B22 |
| 1.87 relative to wild type | B23 |
| 0.94 relative to wild type | B24 |

Source: patent US20060058231A1 (Xencor, published 2006)
